Laboratory results as given in US20180162928A1 (Janssen / Centocor, published 2018).
Where two headings read alike, the source gives them in different places.

Tests used:
Assay in all cases: ELISA, lysate on plate-bound antigen
[1] = biological target: human serum albumin (human) (UniProt P02768)
[2] = biological target: unrelated Fc-fused recombinant protein
[3] = biological target: T1, recombinant biotinylated PD-L1 (rhPD-L1/Fc Chimera, R&D Systems 156-B7) (human, UniProt Q9NZQ7 19-238, biotinylated (sites not given))
T1 construct: Bought Fc chimera; also called human PD-L1
Summary of the method: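 On streptavidin plates coated with biotinylated PD-L1 (unrelated Fc-fusion protein and HSA as negative controls), diluted lysate was applied for 1 h. Bound FN3 domains detected with HRP-conjugated anti-FN3 antibody and POD substrate.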

[4] = biological target: unrelated Fc-fused recombinant protein; remark: listed apart in the source

T1 sequence (Q9NZQ7 19-238, change not shown): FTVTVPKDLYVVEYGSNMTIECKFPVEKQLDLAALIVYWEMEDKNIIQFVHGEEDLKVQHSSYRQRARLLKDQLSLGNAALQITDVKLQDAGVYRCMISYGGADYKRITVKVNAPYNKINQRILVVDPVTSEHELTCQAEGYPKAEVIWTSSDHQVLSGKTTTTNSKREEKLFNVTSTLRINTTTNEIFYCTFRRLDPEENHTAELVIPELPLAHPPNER
human serum albumin (human), sequence (P02768 25-609 limits assumed): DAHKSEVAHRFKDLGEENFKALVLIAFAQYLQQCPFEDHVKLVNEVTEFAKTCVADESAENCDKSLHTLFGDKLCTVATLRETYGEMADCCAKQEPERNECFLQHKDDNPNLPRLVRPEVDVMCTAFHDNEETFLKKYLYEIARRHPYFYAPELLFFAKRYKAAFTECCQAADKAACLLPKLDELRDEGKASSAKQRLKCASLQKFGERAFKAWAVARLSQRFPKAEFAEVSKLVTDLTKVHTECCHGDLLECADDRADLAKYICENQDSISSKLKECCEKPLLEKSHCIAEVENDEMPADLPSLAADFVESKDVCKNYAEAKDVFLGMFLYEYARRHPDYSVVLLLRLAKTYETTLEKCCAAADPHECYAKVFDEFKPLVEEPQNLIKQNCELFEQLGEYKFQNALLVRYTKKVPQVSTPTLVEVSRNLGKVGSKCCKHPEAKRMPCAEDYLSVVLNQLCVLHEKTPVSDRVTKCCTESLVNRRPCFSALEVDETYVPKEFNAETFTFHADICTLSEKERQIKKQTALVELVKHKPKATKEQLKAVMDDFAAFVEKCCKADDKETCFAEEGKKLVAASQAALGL

Row | Binder | ELISA HSA (RSU) [1] | ELISA Fc Control (RSU) [2] | ELISA PD-L1 Fc (RSU) [3] | ELISA Fc Control (RSU) [4]
1 | ISOP121ER5P1E7 (designed binder, not shown: small tags and cut ends, FN3 domain; E. coli lysate in the ELISA) LPAPKNLVVSRVTEDSARLSWTAPDAAFDSFTIGYTETPPRGEAIVLTVPGSERSYDLTGLKPGTKYYVSILGVKGGLGSWPLSAIFTT | 560 RSU | 480 RSU | 251000 RSU | 
2 | ISOP194AR9P1H10 (designed binder, not shown: small tags and cut ends, FN3 domain; E. coli lysate in the ELISA) LPAPKNLVISRVTEDSARLSWPAHYHSAFFDSFLIQYQESEKVGEAIVLTVPGSERSYDLTGLKPGTEYTVSIYGVYQRKVEFHSNPLSAIFTT |  |  | 5.21e+06 RSU | 4400 RSU
3 | ISOP194BR9P1A9 (designed binder, not shown: small tags and cut ends, FN3 domain; E. coli lysate in the ELISA) LPAPKNLVVSRVTEDSARLSWFNADEEYFDSFLIQYQESEKVGEAIVLTVPGSERSYDLTGLKPGTEYTVSIYGVYDRKVKFVQSNPLSAIFTT |  |  | 1.9e+07 RSU | 2320 RSU
4 | ISOP121BR5P1C3 (designed binder, not shown: small tags and cut ends, FN3 domain; E. coli lysate in the ELISA) LPAPKNLVVSRVTEDSARLSWASARDYFDSFLIQYQESEKVGEAIVLTVPGSERSYDLTGLKPGTEYTVSIYGVLAIAQITHWFSNPLSAIFTT | 480 RSU | 640 RSU | 177000 RSU | 

Further lines, results first:

Row | ELISA HSA (RSU) [1] | ELISA Fc Control (RSU) [2] | ELISA PD-L1 Fc (RSU) [3] | ELISA Fc Control (RSU) [4] | Binder
5 | 960 RSU | 1040 RSU | 186000 RSU |  | ISOP121BR5P1D1 (designed binder, not shown: small tags and cut ends, FN3 domain; E. coli lysate in the ELISA) LPAPKNLVVSRVTEDSARLSWKWGGEFFDSFLIQYQESEKVGEAIVLTVPGSERSYDLTGLKPGTEYTVSIYGVYQRNWHHWYSNPLSAIFTT
6 | 1040 RSU | 1120 RSU | 226000 RSU |  | ISOP121BR5P1C9 (designed binder, not shown: small tags and cut ends, FN3 domain; E. coli lysate in the ELISA) LPAPKNLVVSRVTEDSARLSWIWPDKHEFFDSFLIQYQESEKVGEAIVLTVPGSERSYDLTGLKPGTEYTVSIYGVYDRKYANWSSNPLSAIFTT
7 | 1040 RSU | 960 RSU | 240000 RSU |  | ISOP121GR5P1G11 (designed binder, not shown: small tags and cut ends, FN3 domain; E. coli lysate in the ELISA) LPAPKNLVVSRVTEDSARLSWTAPDAAFDSFQINYHEYGQNGEAIQLIVPGSERSYDLTGLKPGTEYGVWIWGVKGGIRSKPLWAFFTT
